Publication PMC6327110, “Species-Specific Functional Regions of the Green Alga Gamete Fusion Protein HAP2 Revealed by Structural Studies” (Structure(London, England:1993), 2019)
“And” between values parts separate entries of the source, which are not always exact repeats. Equal entries are not always repeated.

Biological target: the molecule itself
Test: crystal structure; crystals grown from the HAP2-scFv A20 complex, sitting drop, 293K, 0.2M LiSO4, 0.1M Tris-HCl pH 8.5, 25% w/v PEG 5000 MME; space group P6_(3)22, 2.6 Å; no density for the scFv

B1: Chlamydomonas reinhardtii HAP2 ectodomain (residues 23-592) (domain or fragment)
chain: EVIASGRLEKCVVDGVTEELDCQEKVVVTLTVGNGQSLQTEALEFSLSCLNSPDGRCPCSCSAADPTCACRDLAAPLRVSLTKSPLWASYPLQYLSSFNWKPLEVILRPSNKVCKDGDWEDSPTCGWFSQGGVRVADSQGFCCECSSSQVWDDTFGSSKERTRANLDCDFWSDPLDILIGRKPVSAHCLTFDPQWYSGYELGAASLQFEIAITVEVPTAPSPTTATTSATPRTNNSSSANSTNSTNSPAPQFLSPPAPSTREVLHLGPSVPLASSASRLLSAKLLGDLAMYTQLPAISNQVLMVPQPPAAAAATGSPLDATLATNRSAWMLLDKTMLSMDGLACDKVGTGFSAFRYQPSGCGRAPQACLSGQLKDLWEADLARIADGRVPLYMITRFTGGSDTTLQSFSGGPLSFALPVTSHSQSLVTLSVAADGVRLVTNRSPGKITGAAVCRFAGTSCGGFEAVAARGYIYVNITNTGRLDSDYTLTVSNCSSNVRPIEARTLAVRAGSAASLDPPMELYVEDQAAAAARTCTVSLYDSVGAVTDSLTLSFYTNATQLVVKPSGGYNGDDDDK
modifications: N-linked glycan attached to Asn578; further N-linked glycans marked in Figure 1C
notes: HAP2, Chlamydomonas reinhardtii, Uniprot A4GRC6, soluble C-terminally truncated ectodomain, residues 23-592, ending at G592; enterokinase cleavage site immediately downstream of HAP2 G592, before the double strep-tag; Secreted from the vector pMT/BiP/TwinStrep; The strep tag was removed with enterokinase; Trimer in the crystal; trimers, hexamers and remaining monomers in solution; also called …
For B1, the “stoichiometry N” value was 3 and 6.
